Results as given in US20250122303A1 (HUMMINGBIRD BIOSCIENCE PTE, published 2025).

Experiments:
rat HER3 = biological target: T1, rat HER3 (rat, UniProt Q62799 20-641, limits assumed); experiment: ELISA; plate coated with target polypeptide, antibody serially diluted, absorbance 450 nm
T1 construct: also called rat homologue of HER3 (Sino Biological Inc.); R. norvegicus HER3
Protocol: (§1) ELISAs were carried out according to standard protocols. Plates were coated with 0.1 μg/ml of target polypeptide in phosphate-buffered saline (PBS) for 16 h at 4° C. After blocking for 1 h with 1% BSA in Tris buffer saline (TBS) at room temperature, the anti-HER3 antibody was serially diluted with the highest concentration being 10 μg/ml, and added to the plate. Post 1 h incubation at room temperature, plates were washed three times with TBS containing 0.05% Tween 20 (TBS-T) and were then incubated with a HRP-conjugated anti-His antibody (Life Technologies, Inc., USA) for 1 h at room temperature. After washing, plates were developed with colorimetric detection substrate 3,3′,5,5′-tetramethylbenzidine (Turbo-TMB; Pierce, USA) for 10 min. The reaction was stopped with 2M H₂SO₄, and OD was measured at 450 nm.

human HER3 polypeptide [1] = biological target: T2, human HER3 polypeptide (human, UniProt P21860 20-643); experiment: as above
T2 construct: Recombinant antigen of the ELISAs; also called human HER3 (Sino Biological Inc.); human antigen HER3
Protocol: as §1

[2] = biological target: T3, recombinant biotinylated human HER3 protein (human, UniProt P21860 20-643, limits assumed, biotinylated, site not stated); experiment: plate ELISA dimerisation assay; human EGFR-His coated, constant HER3-biotin and NRG, antibody varied; blocked partner EGFR-His
T3 construct: also called HER3-biotin
Protocol: Plate-based ELISA dimerisation assays were performed according to standard protocols. Plate was coated with 1 μg/ml human EGFR-His. […] Plates were then washed and incubated for 1 hour with secondary anti-avidin HRP antibody. […] The absorbance was read at 450 nm.

human EGFR = biological target: T4, human EGFR (human, UniProt P00533 25-645); experiment: ELISA; plate coated with target polypeptide, absorbance 450 nm
T4 construct: also called human HER1 (EGFR) (Sino Biological Inc.)
Protocol: (§2) The antibodies were analysed for their ability to bind to human HER3 polypeptide as well as human HER1 (EGFR) and human HER2 (Sino Biological Inc., China).
as §1

human HER2 = biological target: T5, human HER2 (human, UniProt P04626 23-652); experiment: as above
T5 construct: also called human HER2 (Sino Biological Inc.)
Protocol: as §2, §1

His-tagged human HER3 [3] = biological target: T6, His-tagged human HER3 (human, UniProt P21860 20-643); experiment: Bio-Layer Interferometry (Octet QK384); antibody on anti-Human IgG Capture tips, HIS-tagged human HER3 at 35, 69, 139 and 278 nM
T6 construct: Antigen of the BLI experiments and of the HER2-Fc dimerisation ELISA; also called HER3 His; not shown: His tag

[4] = biological target: T7, human HER3 expressed on cells (HEK293 HER3 O/E cells) (human, UniProt P21860 20-1342); experiment: flow cytometry, HEK293 cells overexpressing human HER3 (293_OE HER3), 20 ug/ml antibody, FITC anti-Fc secondary; same antibody on 293 cells: 2.78; unstained 293: 0.14
T7 construct: Also used here for HER3 on U2OS cells of the PathHunter kit and on cancer cell lines; also called HEK293 cells transfected with vector encoding human HER3; human HER3-expressing cells

[5] = biological target: T8, human HER4 expressed on HEK293 cells (human, UniProt Q15303 26-1308); experiment: flow cytometry on HEK293 HER4 overexpressing cells
T8 construct: whole, on cells; also called HEK293 HER4 overexpressing cells; cell-surface expressed HER4
Protocol: Also included was a commercial anti-HER4 antibody (Novus, Cat: FAB11311P). Unstained HEK293 cells were included in the analysis as negative controls.
HEK293 cells were incubated with 10 μg/ml of each antibody for 1 hour at 4° C. Flow cytometry was performed as described above. Cells were contacted with FITC-conjugated anti-FC antibody (Invitrogen, USA) at for 30 min at 4° C.

His-tagged human HER3 [6] = biological target: T6, His-tagged human HER3; experiment: BLI (Octet QK384), antibody on anti-human IgG capture tips, His-tagged human HER3 35-278 nM, global 1:1 fit; kdis Error 1.15E-04
Protocol: The anti-HER3 antibody clones in IgG1 format were analysed for binding affinity to human HER3. Bio-Layer Interferometry (BLI) experiments were performed using the Octet QK384 system (ForteBio). anti-Human IgG Capture (AHC) Octet sensor tips (Pall ForteBio, USA) were used to anti-HER3 antibodies (25 nM). All measurements were performed at 25° C. with agitation at 1000 rpm. […] Sensograms were referenced for buffer effects and then fitted using the Octet QK384 user software (Pall ForteBio, USA). Kinetic responses were subjected to a global fitting using a one site binding model to obtain values for association (Kₒₙ), dissociation (Koff) rate constants and the equilibrium dissociation constant (KD). Only curves that could be reliably fitted with the software (R²>0.90) were included in the analysis.

hCD16a = biological target: T9, hCD16a (human, UniProt P08637 17-208, limits assumed); experiment: BLI; after 7 days at 40 °C/80% RH
T9 construct: also called human CD16a

human HER3 polypeptide [7] = biological target: T2, human HER3 polypeptide; experiment: BLI; after 7 days at 40 °C/80% RH
[8] = biological target: T7, human HER3 expressed on cells (HEK293 …); experiment: flow cytometry on HEK293T HER3 O/E cells, 10 ug antibody as printed, FITC-conjugated anti-Fc secondary
Protocol: The cells were washed with buffer (PBS with 2 mM EDTA and 0.5% BSA) and resuspended in FITC-conjugated anti-FC antibody (Invitrogen, USA) at 10 μg/ml for 20 min at 4° C. Cells were washed again and resuspended in 200 μL of FACS flow buffer (PBS with 5 mM EDTA) for flow cytometric analysis using MACSQuant 10 (Miltenyi Biotec, Germany). Unstained WT and transfected HEK293 cells were included in the analysis as negative controls. After acquisition, all raw data were analyzed using Flowlogic software. Cells were gated using forward and side scatter profile percentage of positive cells was determined for native and overexpressing cell populations.

T8 sequence (Q15303 26-1308): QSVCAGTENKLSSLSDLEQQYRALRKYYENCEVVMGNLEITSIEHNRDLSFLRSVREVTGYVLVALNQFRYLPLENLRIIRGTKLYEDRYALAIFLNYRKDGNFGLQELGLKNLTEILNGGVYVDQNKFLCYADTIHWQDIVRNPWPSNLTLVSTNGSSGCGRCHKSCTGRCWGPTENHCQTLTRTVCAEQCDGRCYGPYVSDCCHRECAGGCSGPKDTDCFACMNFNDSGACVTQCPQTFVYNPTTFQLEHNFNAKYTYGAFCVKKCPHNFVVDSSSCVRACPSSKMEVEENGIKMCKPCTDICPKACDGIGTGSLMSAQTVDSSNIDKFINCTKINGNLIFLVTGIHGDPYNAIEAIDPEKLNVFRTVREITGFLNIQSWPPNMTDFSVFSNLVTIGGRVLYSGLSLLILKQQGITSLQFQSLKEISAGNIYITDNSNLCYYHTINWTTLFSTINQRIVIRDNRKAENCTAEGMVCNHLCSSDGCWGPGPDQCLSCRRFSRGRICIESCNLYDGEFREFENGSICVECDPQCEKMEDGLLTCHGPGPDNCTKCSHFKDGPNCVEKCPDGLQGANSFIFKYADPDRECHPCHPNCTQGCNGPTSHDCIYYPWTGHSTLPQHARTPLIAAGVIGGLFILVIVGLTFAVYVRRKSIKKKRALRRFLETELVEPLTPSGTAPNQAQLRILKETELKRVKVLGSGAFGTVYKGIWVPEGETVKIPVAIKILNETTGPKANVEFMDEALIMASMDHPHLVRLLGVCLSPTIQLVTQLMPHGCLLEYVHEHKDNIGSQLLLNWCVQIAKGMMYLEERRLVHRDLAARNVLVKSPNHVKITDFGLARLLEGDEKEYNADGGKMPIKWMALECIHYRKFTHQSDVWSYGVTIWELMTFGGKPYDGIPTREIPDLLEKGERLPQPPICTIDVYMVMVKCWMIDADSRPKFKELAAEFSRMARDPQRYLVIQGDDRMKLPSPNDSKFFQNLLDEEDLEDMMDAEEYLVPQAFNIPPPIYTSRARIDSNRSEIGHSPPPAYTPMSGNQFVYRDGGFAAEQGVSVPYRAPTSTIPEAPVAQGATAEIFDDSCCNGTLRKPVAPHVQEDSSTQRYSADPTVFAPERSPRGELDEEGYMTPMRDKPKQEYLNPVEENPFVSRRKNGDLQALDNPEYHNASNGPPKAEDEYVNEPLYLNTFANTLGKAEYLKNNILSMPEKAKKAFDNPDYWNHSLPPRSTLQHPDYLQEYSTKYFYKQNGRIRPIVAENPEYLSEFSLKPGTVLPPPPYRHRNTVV
T1 sequence (Q62799 20-641 limits assumed): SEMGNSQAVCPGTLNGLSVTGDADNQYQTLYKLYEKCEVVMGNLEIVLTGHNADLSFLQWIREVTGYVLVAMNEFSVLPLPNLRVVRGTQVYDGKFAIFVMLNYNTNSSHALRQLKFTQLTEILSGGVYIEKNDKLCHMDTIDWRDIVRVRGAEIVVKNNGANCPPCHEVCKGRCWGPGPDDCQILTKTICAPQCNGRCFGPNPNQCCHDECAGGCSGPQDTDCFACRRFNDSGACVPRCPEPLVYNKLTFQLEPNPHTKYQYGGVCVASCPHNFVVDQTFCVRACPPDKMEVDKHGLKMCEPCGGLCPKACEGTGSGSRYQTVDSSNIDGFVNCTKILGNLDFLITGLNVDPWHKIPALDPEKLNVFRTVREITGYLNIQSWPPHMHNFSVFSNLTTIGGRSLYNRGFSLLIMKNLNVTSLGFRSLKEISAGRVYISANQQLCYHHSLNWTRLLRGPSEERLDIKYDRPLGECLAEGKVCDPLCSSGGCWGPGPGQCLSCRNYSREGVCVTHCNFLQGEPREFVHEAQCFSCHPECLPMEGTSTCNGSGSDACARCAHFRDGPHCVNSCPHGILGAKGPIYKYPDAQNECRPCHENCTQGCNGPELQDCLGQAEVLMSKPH

B1: 10D1F.FcA (anti-HER3 clone 10D1_c89 IgG1) (antibody)
heavy: not shown
light: DIQMTQSPSSVSASVGDRVTITCKASQIVGSNVAWYQQKPGKAPEPLIYSASYLYSGVPSRFSGSGSGTDFTLTISSLQPEDFATYYCQQYSSHPLTFGQGTKLEIKRTVAAPSVFIFPPSDEQLKSGTASVVCLLNNFYPREAKVQWKVDNALQSGNSQESVTEQDSKDSTYSLSSTLTLSKADYEKHKVYACEVTHQGLSSPVTKSFNRGEC
notes: also called 10D1F.A; HMBD-001
EC50 (rat HER3): 0.0303 nM
EC50 (human HER3 polypeptide [1]): 0.0144 nM
IC50 [2]: 4.78 nM
binding result (human EGFR): no binding
binding result (human HER2): no binding
Kd (His-tagged human HER3 [3]): 0.0726 nM
koff (His-tagged human HER3 [3]): 2.16e-05 s⁻¹
kon (His-tagged human HER3 [3]): 297000 M⁻¹ s⁻¹
% Parent (HER3 positive) [4]: 44.6%
binding result [5]: no binding
koff (His-tagged human HER3 [6]): 2.16e-05 s⁻¹
Kd (hCD16a): 302 nM
Kd (human HER3 polypeptide [7]): < 0.001 nM
% Parent (HER3 positive) [8]: 73.3%
